Source: US20240409638A1 (AVACTA LIFE SCIENCES, published 2024)

How the values were obtained:
[1] = biological target: T1, human serum albumin (HSA) (human, UniProt P02768 25-609); assay: SPR (Biacore): immobilized ligand HSA (Sigma # A3782), AFFIMER as analyte, pH 7.0 by the legend
T1 construct: The assays used bought HSA (Sigma #A37812 in the SPR work); also called HuSA
Method: (§1) For the HSA binding kinetic analysis, HSA (Sigma #A37812) was immobilized on a CM5 chip surface using amine coupling in 10 mM sodium acetate (pH 5.0) (Cytvia). […] The chip surface was regenerated with 3 mM NaOH for 20 seconds at a flow rate of 20 μl/min. The kinetic data was blank subtracted and fit to a 1:1 Langmuir binding model (BIAcore evaluation software; Cytiva).

[2] = biological target: T2, PD-L1 on cells (NCI-H441 cells; aAPC PD-L1/CHO-K1 cells, Promega) (human, UniProt Q9NZQ7 19-290); assay: cell-based or functional assay
[3] = biological target: T1, human serum albumin (HSA); assay: HSA binding ELISA: HSA coated, bound AFFIMER detected with biotinylated anti-cystatin A antibody and streptavidin-HRP
Method: Plates were washed and AFFIMER® polypeptides were detected using streptavidin-HRP for 30 min. After the last washing step, the TMB substrate was added for the development of the experiment and plates were read at 450 nm. The EC₅₀ was then calculated using the interpolated non-linear four-parameters standard curve.

[4] = biological target: T1, human serum albumin (HSA); assay: SPR, Biacore, HSA amine-coupled on CM5; E. coli-produced format
Method: as §1

[5] = biological target: T2, PD-L1 on cells (NCI-H441 cells; aAPC …); assay: cell-based or functional assay; remark: listed apart in the source
[6] = biological target: T3, human PD-L1-Fc (R&D Systems) (human, UniProt Q9NZQ7 19-239); assay: SPR (Biacore 8K): human PD-L1-Fc amine-coupled on a CM5 chip, AFFIMER as analyte, 1:1 Langmuir fit
T3 construct: Bought reagent; also called huPD-L1-Fc; huPD-L1; not shown: Fc part of the bought fusion

[7] = biological target: T3, human PD-L1-Fc (R&D Systems); assay: SPR (Biacore) kinetics: human PD-L1-Fc immobilised on a CM5 chip, AFFIMER as analyte
[8] = biological target: T1, human serum albumin (HSA); assay: HSA binding ELISA: HSA coated, anti-cystatin A detection
[9] = biological target: T2, PD-L1 on cells (NCI-H441 cells; aAPC …); assay: flow cytometry, % positive cells, aAPC PD-L1/CHO-K1 cells (overexpressing PD-L1)
Method: (§2) Lung cancer cell line (NCI-H441 (ATCC), CHO-K1 recombinant cell line overexpressing PD-L1 aAPC/CHO-K1 (Promega J1252)) and a negative cell line (CHO-K1, ATCC) were used to assess AFFIMER® agent binding capacity to PD-L1 by flow cytometry.
(§3) Briefly, 50 000 cells were added to each well of a 96-well microplate. After this step and each subsequent step, cells were washed twice with PBS+2 mM EDTA using 350g centrifugation for 3 minutes at 4° C. All steps were performed at 4° C. using assay buffer comprising 5% FBS, 2 mM EDTA and 0.05% sodium azide in PBS unless otherwise stated. Independent AFFIMER® agent dilutions were prepared in duplicate and added to the plates. […] Fixation was performed for 10 minutes at 4° C. with Fixation Buffer (Bio-techne FC004). Cells were resuspended in 100 ul assay buffer prior the acquisition of the data. 5000 events were collected by Flow cytometry (Millipore Guava 12HT). The results were gated on live cells and singlets (SSC-H vs SSC-A). The percentage of cells expressing PD-L1 bound by the AFFIMER® agent (positive cells) was determined by using as negative control (background) where the wells were stained with the AF488 conjugated secondary antibody only without AFFIMER® agent. The average of the duplicate wells was used to calculate EC₅₀ using a four-parameter non-linear regression curve fit using Graphpad Prism software. […]

[10] = biological target: T1, human serum albumin (HSA); assay: SPR (Biacore 8K): HSA amine-coupled on a CM5 chip, AFFIMER as analyte, pH 7.4, 1:1 Langmuir fit
Method: as §1

[11] = biological target: T4, murine serum albumin (MSA) (murine, UniProt P07724 25-608); assay: SPR (Biacore): immobilized ligand MSA (Sigma # A3559), AFFIMER as analyte, pH 7.0 by the legend
T4 construct: Bought reagent

[12] = biological target: T2, PD-L1 on cells (NCI-H441 cells; aAPC …); assay: flow cytometry, % positive cells, NCI-H441 cells (endogenous PD-L1)
Method: as §2, §3

[13] = biological target: T3, human PD-L1-Fc (R&D Systems); assay: SPR (Biacore 8K): human PD-L1-Fc amine-coupled on a CM5 chip, AFFIMER as analyte
[14] = biological target: T1, human serum albumin (HSA); assay: SPR (Biacore 8K): HSA amine-coupled on a CM5 chip, AFFIMER as analyte, pH 6.0, 1:1 Langmuir fit
Method: as §1

T2 sequence (Q9NZQ7 19-290): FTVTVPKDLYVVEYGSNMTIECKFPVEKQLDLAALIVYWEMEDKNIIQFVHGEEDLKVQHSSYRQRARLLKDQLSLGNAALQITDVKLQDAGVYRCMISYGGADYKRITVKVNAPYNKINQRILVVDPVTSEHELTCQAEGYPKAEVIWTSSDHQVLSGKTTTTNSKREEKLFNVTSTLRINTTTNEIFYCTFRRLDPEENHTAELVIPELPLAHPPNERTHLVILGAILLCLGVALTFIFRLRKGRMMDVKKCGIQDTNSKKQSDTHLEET
T3 sequence (Q9NZQ7 19-239 limits assumed): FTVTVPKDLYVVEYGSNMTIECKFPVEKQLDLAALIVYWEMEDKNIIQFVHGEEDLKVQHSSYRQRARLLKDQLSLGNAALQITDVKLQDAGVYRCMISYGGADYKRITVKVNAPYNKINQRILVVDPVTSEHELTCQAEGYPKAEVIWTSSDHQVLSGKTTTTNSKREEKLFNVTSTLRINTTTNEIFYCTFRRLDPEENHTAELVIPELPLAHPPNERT
T1 sequence (P02768 25-609): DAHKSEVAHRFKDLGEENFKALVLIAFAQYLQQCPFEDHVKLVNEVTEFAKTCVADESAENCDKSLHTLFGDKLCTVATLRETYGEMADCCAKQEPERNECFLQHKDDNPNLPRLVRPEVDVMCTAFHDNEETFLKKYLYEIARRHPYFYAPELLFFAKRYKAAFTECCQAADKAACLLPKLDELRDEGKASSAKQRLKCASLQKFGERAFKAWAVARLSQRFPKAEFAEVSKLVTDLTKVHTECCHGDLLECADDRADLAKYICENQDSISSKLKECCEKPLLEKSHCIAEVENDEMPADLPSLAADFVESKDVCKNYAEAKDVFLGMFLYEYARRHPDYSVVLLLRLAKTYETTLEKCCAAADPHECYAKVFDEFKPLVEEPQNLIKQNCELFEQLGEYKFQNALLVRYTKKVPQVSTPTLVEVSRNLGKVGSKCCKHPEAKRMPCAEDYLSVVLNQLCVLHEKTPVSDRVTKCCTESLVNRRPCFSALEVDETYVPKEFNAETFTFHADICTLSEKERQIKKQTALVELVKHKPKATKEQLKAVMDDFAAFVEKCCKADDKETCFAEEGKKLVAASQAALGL

B1: Clone 80 XT35 (anti-PD-L1 type III AFFIMER® XT in-line fusion dimer XT) (designed binder)
chain: MIPGGLSEAKPATPEIQEIVDKVKPQLEEKTGETYGKLEAVQYKTQVVRRKHFPQWPGTNYYIKVRAGDNKYMHLKVFKSLDLQPREVFQEDLVLTGYQVDKNKDDELTGFAEAAAKEAAAKEAAAKEAAAKEAAAKEAAAKMIPGGLSEAKPATPEIQEIVDKVKPQLEEKTGETYGKLEAVQYKTQVVRRKHFPQWPGTNYYIKVRAGDNKYMHLKVFKSLDLQPREVFQEDLVLTGYQVDKNKDDELTGFAEAAAKEAAAKEAAAKEAAAKEAAAKEAAAKMIPRGLSEAKPATPEIQEIVDKVKPQLEEKTNETYGKLEAVQYKTQVLANFFQRRWPGSTNYYIKVRAGDNKYMHLKVFNGPWKFRNTDRGADRVLTGYQVDKNKDDELTGFHHHHHH
notes: Made in E. coli; Two Clone 80 units are fused to one HSA-41; also called XT35_1; ILF trimer format
With B1 the Kd [1] was 9.09 nM, the koff [1] was 0.00359 s⁻¹ and the kon [1] was 395000 M⁻¹ s⁻¹. For the same binder, the “half-maximal concentration of PD-1/PD-L1 blockade (% of inhibition, NFAT-luciferase reporter cells; IC50)” value [2] was 33.4 nM, the EC50 [3] was 0.03 nM and the Kd [4] was 9 nM. For the same binder, the “IC50 of PD-1/PD-L1 blockade (% of inhibition, Promega NFAT-luciferase reporter cells)” value [5] was 131 nM, the Kd [6] was 0.0391 nM and the Kd [7] was 0.0686 nM. The koff [7] was 6.07e-05 s⁻¹, the kon [7] was 884000 M⁻¹ s⁻¹ and the EC50 [8] was 1.03 nM. It also gave an EC50 [9] of 0.036 nM, a Kd [10] of 6.13 nM and a koff [10] of 0.00589 s⁻¹. The kon [10] was 961000 M⁻¹ s⁻¹, the koff [11] was 0.0474 s⁻¹ and the kon [11] was 176000 M⁻¹ s⁻¹. It also gave an EC50 [12] of 0.41 nM, a Kd [13] of 0.06 nM and a koff [13] of 7.12e-05 s⁻¹. The kon [13] was 1.19e+06 M⁻¹ s⁻¹, the Kd [14] was 4.44 nM and the koff [14] was 0.00302 s⁻¹. For the same binder, the kon [14] was 681000 M⁻¹ s⁻¹.
